This note sets out measurements from US20170007671A1.

For the assay, the target named is Neuregulin-1 receptors (ErbB3 or ErbB4) on MCF-7 human breast cancer cells. In words: cell-based or functional assay.

B1: recombinant human Neuregulin-1 (rhNRG-1) (ligand)
chain: SHLVKCAEKEKTFCVNGGECFMVKDLSNPSRYLCKCPNEFTGDRCQNYVMASFYKAEELYQ
As for B1, the Biological activity; ErbB2 phosphorylation ELISA on MCF-7 cell lysates; Reference Sample (0 g/L HSA) was determined as 1500 U, the Biological activity; ErbB2 phosphorylation ELISA on MCF-7 cell lysates; Sample A (0.5 g/L HSA) was 1730 U, the Biological activity; ErbB2 phosphorylation ELISA on MCF-7 cell lysates; Sample B (2 g/L HSA) was found to be 3500 U and the Biological activity; ErbB2 phosphorylation ELISA on MCF-7 cell lysates; Sample C (8 g/L HSA) came out at 4000 U. This molecule had an EC50 value; ErbB2 phosphorylation ELISA on MCF-7 cell lysates; Reference Sample (0 g/L HSA) of 0.0505, an EC50 value; ErbB2 phosphorylation ELISA on MCF-7 cell lysates; Sample A (0.5 g/L HSA) of 0.0439, an EC50 value; ErbB2 phosphorylation ELISA on MCF-7 cell lysates; Sample B (2 g/L HSA) of 0.0217 and an EC50 value; ErbB2 phosphorylation ELISA on MCF-7 cell lysates; Sample C (8 g/L HSA) of 0.0189. The OD50 value; ErbB2 phosphorylation ELISA on MCF-7 cell lysates; Reference Sample (0 g/L HSA) came out at 0.391 OD, the OD50 value; ErbB2 phosphorylation ELISA on MCF-7 cell lysates; Sample A (0.5 g/L HSA) was 0.393 OD, the OD50 value; ErbB2 phosphorylation ELISA on MCF-7 cell lysates; Sample B (2 g/L HSA) is 0.406 OD and the OD50 value; ErbB2 phosphorylation ELISA on MCF-7 cell lysates; Sample C (8 g/L HSA) amounted to 0.424 OD. The same molecule returned a Standard sample EC50/sample EC50; ErbB2 phosphorylation ELISA on MCF-7 cell lysates; Sample A (0.5 g/L HSA) against Reference Sample of 1.15, a Standard sample EC50/sample EC50; ErbB2 phosphorylation ELISA on MCF-7 cell lysates; Sample B (2 g/L HSA) against Reference Sample of 2.33, a Standard sample EC50/sample EC50; ErbB2 phosphorylation ELISA on MCF-7 cell lysates; Sample C (8 g/L HSA) against Reference Sample of 2.67 and a specific activity; ErbB2 phosphorylation ELISA on MCF-7 cell lysates; Reference Sample (0 g/L HSA) of 6000 U/mg. The same molecule returned a specific activity; ErbB2 phosphorylation ELISA on MCF-7 cell lysates; Sample A (0.5 g/L HSA) of 6900 U/mg, a specific activity; ErbB2 phosphorylation ELISA on MCF-7 cell lysates; Sample B (2 g/L HSA) of 14000 U/mg and a specific activity; ErbB2 phosphorylation ELISA on MCF-7 cell lysates; Sample C (8 g/L HSA) of 16000 U/mg.
